# Assay results reported in US20130059772A1, “Use of Repeat Sequence Protein Polymers in Personal Care Compositions” (DANISCO US INC., priority 2003, published 2013).
# What was measured:
# [1] = Isoelectric point determination (IEF gel); assay type: physicochemical; conditions: stated in production example
# Procedure: In this Example, experiments performed to determine the isoelectric point and cloud point of SELP47K (Example 1) are described. The isoelectric point of SELP47K was determined by electrophoresing 5 mg/ml SELP47K solution using Isoelectric Focusing Electrophoresis (IEF) gel and Novex electrophoresis apparatus along with protein standards markers.
# [2] = system: elastase; assay: Elastase inhibition assay (fibroblast lysate, STANA substrate); assay type: biochemical, human
# Procedure: The RSPP test materials were also tested to determine their effect(s) on elastase activity. In these experiments, human dermal fibroblasts were used as a source of the elastase enzyme. This enzyme was partially purified from the fibroblasts by lysing the cells in an elastase buffer and retaining the soluble portion of the lysate. Portions of this fibroblast lysate were then incubated with test materials and a synthetic elastase substrate, Suc-(Ala3)-p-Nitroaniline (STANA). Elastase acts upon this substrate to release p-nitroaniline, which can be detected spectrophotometrically by measuring the absorbance at a wavelength of 405 nm. An inhibition of the elastase enzyme is noted by a decrease in the amount of released p-nitroaniline when compared to uninhibited enzyme.
# Cells were expanded and passed until a sufficient number of cells had been grown (not exceeding 10 passages). When a sufficient number of cells had been grown, the fibroblast lysate containing the elastase enzyme was prepared as follows:
# The fibroblasts were washed twice with 15 ml of phosphate buffered saline with each wash removed via aspiration. Ice cold PBS (7.5 ml) was then added to the flask and the cells were detached with a cell scraper. The detached cells/PBS was transferred to a 15 ml centrifuge tube on ice. The flask was rinsed again with 7.5 ml of PBS, which was also transferred to the 15 ml tube. […] The protein concentration of the fibroblast lysate was determined using the Pierce BCA Protein Assay kit (see below for details) and the fibroblast lysate was stored at −75° C. until used (for up to 1 year).
# Upon determining the protein concentration of the lysate, a small sample was obtained and the elastase activity of the lysate was determined at 1×, 0.5× and 0.25× concentrations. The activity was determined for each of the different concentrations in exactly the same way that the uninhibited sample was treated in the elastase assay (see below). […] After 1.25 hours, the well plate was removed and read in a 96-well plate reader at 405 nm. The mean absorbances were plotted versus concentration. […]
# [3] = system: Fibroblasts (HDFn Cell Line)
# Procedure: Initial screening was conducted to identify a test range suitable to determine the effect of a broad range of test material concentrations on cell viability. […] Cultured fibroblasts were exposed to the test materials for 48 hours and then changes in cell viability were determined using an MTT assay (i.e., a colorimetric analysis of the metabolic activity of the cultured cells, described in greater detail below).
# The purple crystals are extracted from the cells with isopropanol and the amount of crystal formation quantified spectrophotometrically. […] A decrease in color intensity can be a sign of toxicity.
# Fibroblasts (Cascade Biologics, HDFn Cell Line, lot#1C0914) were seeded into the individual wells of either a 96-well plate (for the initial pilot work to determine concentration effects on cell viability) in 100 μl of Fibroblast Growth Media (FGM) or in 12-well plates (for the measurement of collagen, elastin and MMP-1) in 1.0 ml of FGM and incubated overnight at 37±2° C. and 5±1% CO2. On the following day, the medium was removed via aspiration to eliminate any non-adherent cells and replaced with fresh FGM. The cells were grown until confluent, with a media change every 48 to 72 hours. Upon reaching confluency, the cells were treated for 24 hours with Dulbecco's Modified Essential Media (DMEM) supplemented with 1.5% FBS to wash out any effects from the growth factors included in the normal FGM. After this 24-hour wash out period, the cells were treated with the test materials at the specified concentrations dissolved in DMEM with 1.5% FBS. Untreated cells (negative controls) received DMEM with 1.5% FBS. The cells were incubated for 48 hours and at the end of the incubation period cell culture medium was either discarded (pilot work) or collected and stored frozen at −75° C. The test materials were tested in triplicate.
# After the 2-day incubation, the cell culture medium was removed and the fibroblasts were washed twice with PBS to remove any remaining test material. After the final wash, either 100 μl (96-well plates) or 300 μl (12-well plates) of DMEM supplemented with 0.5 mg/ml MTT were added to each well and the cells were incubated for 1 hour at 37±2° C. and 5±1% CO2. After the incubation, the DMEM/MTT solution was removed and the cells were washed again once with PBS and then either 100 μl (96-well plates) or 1 ml (12-well plates) of isopropyl alcohol were added to each well to extract the purple formazin crystals. For the 12-well plates, two hundred microliters of the isopropyl extracts was transferred to a 96-well plate. The 96-well plates were read at 540 nm using isopropyl alcohol as a blank. The mean MTT absorbance value for the negative control cells was calculated and used to represent 100% value for cell viability. The individual MTT values from the cells undergoing the various treatments were then divided by the mean value for the negative control cells and expressed as a percent, to determine the change in cell viability caused by each treatment.
# [4] = system: Fibroblasts (HDFn Cell Line); assay: MTT assay (second cell viability assay); conditions: 48 hours
# Source text: The purple crystals are extracted from the cells with isopropanol and the amount of crystal formation quantified spectrophotometrically. The intensity of the purple color is directly proportional to the metabolic activity of the cultured cells, which normally is used as an indication of an increase in the number of viable cells, although it can also indicate an increase in the mitochondrial content of the existing cells (Alley et al., Cancer Res., 48:589-601 1988). A decrease in color intensity can be a sign of toxicity.
# Fibroblasts (Cascade Biologics, HDFn Cell Line, lot#1C0914) were seeded into the individual wells of either a 96-well plate (for the initial pilot work to determine concentration effects on cell viability) in 100 μl of Fibroblast Growth Media (FGM) or in 12-well plates (for the measurement of collagen, elastin and MMP-1) in 1.0 ml of FGM and incubated overnight at 37±2° C. and 5±1% CO2. On the following day, the medium was removed via aspiration to eliminate any non-adherent cells and replaced with fresh FGM. The cells were grown until confluent, with a media change every 48 to 72 hours. Upon reaching confluency, the cells were treated for 24 hours with Dulbecco's Modified Essential Media (DMEM) supplemented with 1.5% FBS to wash out any effects from the growth factors included in the normal FGM. After this 24-hour wash out period, the cells were treated with the test materials at the specified concentrations dissolved in DMEM with 1.5% FBS. […]
# After the 2-day incubation, the cell culture medium was removed and the fibroblasts were washed twice with PBS to remove any remaining test material. […] The 96-well plates were read at 540 nm using isopropyl alcohol as a blank. The mean MTT absorbance value for the negative control cells was calculated and used to represent 100% value for cell viability. The individual MTT values from the cells undergoing the various treatments were then divided by the mean value for the negative control cells and expressed as a percent, to determine the change in cell viability caused by each treatment.
# [5] = system: reactive oxygen species (ROS); assay: Fluorescent DCF dye assay after UVB; assay type: cell-based, human; conditions: No UVB 0.031, UVB 0.057
# Procedure: Therefore, the aim of the follow-up study, was to determine if treatment with the test material before or during UVB exposure provided any additional survival benefit(s). Four different treatment regiments were employed using different combinations of pretreatment with the test material prior to UVB exposure and treatment with the material during UVB exposure. Cell survival was again assessed via an MTT assay 48 hours after the UVB insult. In addition, this second study also incorporated the use of 2′,7′-dichloro-dihydrofluorescein diacetate (DCF), which is a relatively non-fluorescent dye that can be loaded into cells and becomes fluorescent upon exposure to the reactive oxygen species (ROS) generated during UVB exposure (Carini et al., Il Farmaco 55:526-534 [2000]; and Chan et al., J. Cell. Biochem., 90:327-338 [2003]). The diacetate form of the dye can freely traverse cell membranes, however once inside of the cell intracellular esterases will cleave off the acetate side groups trapping the DCF dye within the cell.
# Two sets of duplicate cells were prepared using the four treatment protocols outlined in Table 24. One set of cells was used for an MTT assay while the other set of cells was used to measure the formation of ROS using the fluorescent DCF dye indicator.
# For this follow up study, the material was tested at concentrations of 0.14% and 0.014%. During the pretreatment phase, the test material was diluted in FGM (for treatments 1 and 2). […] For the MTT assay, cells that were not exposed to UVB or treated with test materials were used to represent 100% cell viability.
# One hour prior to UVB exposure, the cell culture media were removed and the wells were washed with PBS to remove any residual RSPP test material in the set of cells used for the DCF assay. A 20 mM stock of DCF prepared in DMSO was diluted to 10 μM using PBS and 100 μl of this solution were added to each well. The plate was then returned to the incubator for 1 hour, to allow sufficient time for the cells to take up and trap the dye. After the 1-hour incubation, the cells were washed with PBS to remove any unincorporated dye and then exposed to UVB using the protocol described above. Forty-eight hours later, the 96-well plate was read using a fluorometer set for an excitation wavelength of 485 nm and an emission wavelength of 518 nm. The duplicate set of wells run for the MTT assay served as non-dye loaded blanks to account for any background fluorescence due to the cells or the test material.
# The mean fluorescence intensity was determined for each of the treatment groups (measured in relative fluorescence units or “RFU”).
Molecule,pI of the protein [1],Percent Inhibition ([2]; 0.1%) [%],Percent Inhibition ([2]; 0.5%) [%],Percent Inhibition ([2]; 1%) [%],concentrations with adverse effects on cell viability [3] [%],Percent Viability ([4]; 0.0014%) [%],Percent Viability ([4]; 0.007%) [%],Percent Viability ([4]; 0.014%) [%],"RFU/Viability ([5]; T1 (24 hour pretreatment, absent during UVB, present 48 hours after) 0.014%)","RFU/Viability ([5]; T1 (24 hour pretreatment, absent during UVB, present 48 hours after) 0.14%)","RFU/Viability ([5]; T2 (24 hour pretreatment, present during UVB and 48 hours after) 0.014%)","RFU/Viability ([5]; T2 (24 hour pretreatment, present during UVB and 48 hours after) 0.14%)",RFU/Viability ([5]; T3 (present only 48 hours after UVB) 0.014%),RFU/Viability ([5]; T3 (present only 48 hours after UVB) 0.14%),"RFU/Viability ([5]; T4 (no pretreatment, present during UVB and 48 hours after) 0.014%)","RFU/Viability ([5]; T4 (no pretreatment, present during UVB and 48 hours after) 0.14%)"
"GC2596-26-E: collagen-like repeat sequence protein polymer, head-[(GAHGPAGPK)2(GAQGPAGPG)24(GAHGPAGPK)2]4-tail; SEQ ID NO:34 (Example 5) (protein, silk-elastin repeat sequence protein copolymer) MDPVVLQRRDWENPGVTQLNRLAAHPPFASDPMGAHGPAGPKGAHGPAGPKGAQGPAGPGGAQGPAGPGGAQGPAGPGGAQGPAGPGGAQGPAGPGGAQGPAGPGGAQGPAGPGGAQGPAGPGGAQGPAGPGGAQGPAGPGGAQGPAGPGGAQGPAGPGGAQGPAGPGGAQGPAGPGGAQGPAGPGGAQGPAGPGGAQGPAGPGGAQGPAGPGGAQGPAGPGGAQGPAGPGGAQGPAGPGGAQGPAGPGGAQGPAGPGGAQGPAGPGGAHGPAGPKGAHGPAGPKGAHGPAGPKGAHGPAGPKGAQGPAGPGGAQGPAGPGGAQGPAGPGGAQGPAGPGGAQGPAGPGGAQGPAGPGGAQGPAGPGGAQGPAGPGGAQGPAGPGGAQGPAGPGGAQGPAGPGGAQGPAGPGGAQGPAGPGGAQGPAGPGGAQGPAGPGGAQGPAGPGGAQGPAGPGGAQGPAGPGGAQGPAGPGGAQGPAGPGGAQGPAGPGGAQGPAGPGGAQGPAGPGGAQGPAGPGGAHGPAGPKGAHGPAGPKGAHGPAGPKGAHGPAGPKGAQGPAGPGGAQGPAGPGGAQGPAGPGGAQGPAGPGGAQGPAGPGGAQGPAGPGGAQGPAGPGGAQGPAGPGGAQGPAGPGGAQGPAGPGGAQGPAGPGGAQGPAGPGGAQGPAGPGGAQGPAGPGGAQGPAGPGGAQGPAGPGGAQGPAGPGGAQGPAGPGGAQGPAGPGGAQGPAGPGGAQGPAGPGGAQGPAGPGGAQGPAGPGGAQGPAGPGGAHGPAGPKGAHGPAGPKGAHGPAGPKGAHGPAGPKGAQGPAGPGGAQGPAGPGGAQGPAGPGGAQGPAGPGGAQGPAGPGGAQGPAGPGGAQGPAGPGGAQGPAGPGGAQGPAGPGGAQGPAGPGGAQGPAGPGGAQGPAGPGGAQGPAGPGGAQGPAGPGGAQGPAGPGGAQGPAGPGGAQGPAGPGGAQGPAGPGGAQGPAGPGGAQGPAGPGGAQGPAGPGGAQGPAGPGGAQGPAGPGGAQGPAGPGGAHGPAGPKGAHGPAGPKMDPGRYQLSAGRYHYQLVWCQK",11.18,−13,−20,−5,≥ 0.07,,,,,,,,,,,
"GC2596-26-D: SELP47K modified with two units of ALSYP (SEQ ID NO:36) peptides in each SELP47K unit; SEQ ID NO:32 (Example 4) (protein, SELP 47K-P4) MDPVVLQRRDWENPGVTQLNRLAAHPPFASDPMGAGAGSGAGAGSALSYPGVGVPGVGVPGVGVPGVGVPGKGVPGVGVPGVGVPGVGVPALSYPGAGAGSGAGAGSGAGAGSGAGAGSALSYPGVGVPGVGVPGVGVPGVGVPGKGVPGVGVPGVGVPGVGVPALSYPGAGAGSGAGAGSGAGAGSGAGAGSALSYPGVGVPGVGVPGVGVPGVGVPGKGVPGVGVPGVGVPGVGVPALSYPGAGAGSGAGAGSGAGAGSGAGAGSALSYPGVGVPGVGVPGVGVPGVGVPGKGVPGVGVPGVGVPGVGVPALSYPGAGAGSGAGAGSGAGAGSGAGAGSALSYPGVGVPGVGVPGVGVPGVGVPGKGVPGVGVPGVGVPGVGVPALSYPGAGAGSGAGAGSGAGAGSGAGAGSALSYPGVGVPGVGVPGVGVPGVGVPGKGVPGVGVPGVGVPGVGVPALSYPGAGAGSGAGAGSGAGAGSGAGAGSALSYPGVGVPGVGVPGVGVPGVGVPGKGVPGVGVPGVGVPGVGVPALSYPGAGAGSGAGAGSGAGAGSGAGAGSALSYPGVGVPGVGVPGVGVPGVGVPGKGVPGVGVPGVGVPGVGVPALSYPGAGAGSGAGAGSGAGAGSGAGAGSALSYPGVGVPGVGVPGVGVPGVGVPGKGVPGVGVPGVGVPGVGVPALSYPGAGAGSGAGAGSGAGAGSGAGAGSALSYPGVGVPGVGVPGVGVPGVGVPGKGVPGVGVPGVGVPGVGVPALSYPGAGAGSGAGAGSGAGAGSGAGAGSALSYPGVGVPGVGVPGVGVPGVGVPGKGVPGVGVPGVGVPGVGVPALSYPGAGAGSGAGAGSGAGAGSGAGAGSALSYPGVGVPGVGVPGVGVPGVGVPGKGVPGVGVPGVGVPGVGVPALSYPGAGAGSGAGAGSGAGAGSGAGAGSALSYPGVGVPGVGVPGVGVPGVGVPGKGVPGVGVPGVGVPGVGVPALSYPGAGAGSGAGAGSGAGAMDPGRYQDLRSHHHHHH",,,,,,100 ± 3,103 ± 2,106 ± 5,0.038,0.038,0.035,0.032,0.053,0.039,0.052,0.026
